Test results: publication doi:10.1101/464701 (bioRxiv, 2018)

T1: MukB (E. coli SMC protein of MukBEF) (E. coli, UniProt P22523 1-1486)
T1 sequence: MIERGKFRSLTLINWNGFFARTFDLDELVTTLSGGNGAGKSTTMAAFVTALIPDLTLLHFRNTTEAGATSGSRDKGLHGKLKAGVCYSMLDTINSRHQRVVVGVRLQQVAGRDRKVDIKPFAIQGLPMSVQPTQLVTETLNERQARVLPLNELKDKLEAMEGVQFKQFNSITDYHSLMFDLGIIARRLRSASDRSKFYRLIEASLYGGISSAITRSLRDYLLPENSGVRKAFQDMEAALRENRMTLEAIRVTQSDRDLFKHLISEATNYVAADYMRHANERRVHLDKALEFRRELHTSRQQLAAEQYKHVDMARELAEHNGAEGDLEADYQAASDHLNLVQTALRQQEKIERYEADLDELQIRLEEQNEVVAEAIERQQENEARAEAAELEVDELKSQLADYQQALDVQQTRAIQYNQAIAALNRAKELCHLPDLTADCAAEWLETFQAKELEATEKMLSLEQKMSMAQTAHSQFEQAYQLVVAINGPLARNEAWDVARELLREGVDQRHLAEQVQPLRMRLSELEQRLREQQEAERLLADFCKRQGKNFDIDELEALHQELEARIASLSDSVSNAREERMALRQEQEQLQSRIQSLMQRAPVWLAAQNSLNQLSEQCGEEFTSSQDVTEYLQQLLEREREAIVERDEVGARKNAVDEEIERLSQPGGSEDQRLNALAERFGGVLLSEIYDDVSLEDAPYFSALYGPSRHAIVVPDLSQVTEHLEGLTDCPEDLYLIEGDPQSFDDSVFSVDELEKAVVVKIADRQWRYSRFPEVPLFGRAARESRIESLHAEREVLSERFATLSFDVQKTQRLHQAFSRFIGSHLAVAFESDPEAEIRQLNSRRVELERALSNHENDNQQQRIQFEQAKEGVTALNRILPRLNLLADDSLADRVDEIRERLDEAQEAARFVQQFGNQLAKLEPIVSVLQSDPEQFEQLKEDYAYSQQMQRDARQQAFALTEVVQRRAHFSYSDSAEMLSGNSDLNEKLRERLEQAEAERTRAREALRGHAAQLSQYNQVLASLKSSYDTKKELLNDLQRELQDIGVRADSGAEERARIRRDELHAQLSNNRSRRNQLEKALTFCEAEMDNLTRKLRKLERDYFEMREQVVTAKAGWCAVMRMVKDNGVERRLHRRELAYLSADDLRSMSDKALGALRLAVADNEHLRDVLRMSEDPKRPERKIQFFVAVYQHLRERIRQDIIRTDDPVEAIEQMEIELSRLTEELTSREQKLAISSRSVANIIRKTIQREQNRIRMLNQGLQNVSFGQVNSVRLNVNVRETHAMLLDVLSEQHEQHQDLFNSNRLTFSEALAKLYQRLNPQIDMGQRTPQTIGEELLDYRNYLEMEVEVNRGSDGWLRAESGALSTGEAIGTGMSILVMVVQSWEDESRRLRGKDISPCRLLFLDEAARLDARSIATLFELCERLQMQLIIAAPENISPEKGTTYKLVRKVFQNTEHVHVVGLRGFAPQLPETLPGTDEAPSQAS

B1: MukF (E. coli kleisin of MukBEF) (natural protein)
chain: MSEFSQTVPELVAWARKNDFSISLPVDRLSFLLAVATLNGERLDGEMSEGELVDAFRHVSDAFEQTSETIGVRANNAINDMVRQRLLNRFTSEQAEGNAIYRLTPLGIGITDYYIRQREFSTLRLSMQLSIVAGELKRAADAAEEGGDEFHWHRNVYAPLKYSVAEIFDSIDLTQRLMDEQQQQVKDDIAQLLNKDWRAAISSCELLLSETSGTLRELQDTLEAAGDKLQANLLRIQDATMTHDDLHFVDRLVFDLQSKLDRIISWGQQSIDLWIGYDRHVHKFIRTAIDMDKNRVFAQRLRQSVQTYFDEPWALTYANADRLLDMRDEEMALRDEEVTGELPEDLEYEEFNEIREQLAAIIEEQLAVYKTRQVPLDLGLVVREYLSQYPRARHFDVARIVIDQAVRLGVAQADFTGLPAKWQPINDYGAKVQAHVIDKY

Columns and labels:
[1] = target: Smc1-Smc3-Scc1 trimer (S. cerevisiae cohesin) (S. cerevisiae, UniProt P32908;P47037;Q12158); experiment: SEC
[2] = target: T1, MukB (E. coli SMC protein of MukBEF); experiment: SEC
[3] = target: B1; experiment: cross-linking
[4] = target: B1; experiment: SEC

Chain of Smc1-Smc3-Scc1 trimer (S. cerevisiae cohesin) (P32908 whole entry, chain 1 of 3): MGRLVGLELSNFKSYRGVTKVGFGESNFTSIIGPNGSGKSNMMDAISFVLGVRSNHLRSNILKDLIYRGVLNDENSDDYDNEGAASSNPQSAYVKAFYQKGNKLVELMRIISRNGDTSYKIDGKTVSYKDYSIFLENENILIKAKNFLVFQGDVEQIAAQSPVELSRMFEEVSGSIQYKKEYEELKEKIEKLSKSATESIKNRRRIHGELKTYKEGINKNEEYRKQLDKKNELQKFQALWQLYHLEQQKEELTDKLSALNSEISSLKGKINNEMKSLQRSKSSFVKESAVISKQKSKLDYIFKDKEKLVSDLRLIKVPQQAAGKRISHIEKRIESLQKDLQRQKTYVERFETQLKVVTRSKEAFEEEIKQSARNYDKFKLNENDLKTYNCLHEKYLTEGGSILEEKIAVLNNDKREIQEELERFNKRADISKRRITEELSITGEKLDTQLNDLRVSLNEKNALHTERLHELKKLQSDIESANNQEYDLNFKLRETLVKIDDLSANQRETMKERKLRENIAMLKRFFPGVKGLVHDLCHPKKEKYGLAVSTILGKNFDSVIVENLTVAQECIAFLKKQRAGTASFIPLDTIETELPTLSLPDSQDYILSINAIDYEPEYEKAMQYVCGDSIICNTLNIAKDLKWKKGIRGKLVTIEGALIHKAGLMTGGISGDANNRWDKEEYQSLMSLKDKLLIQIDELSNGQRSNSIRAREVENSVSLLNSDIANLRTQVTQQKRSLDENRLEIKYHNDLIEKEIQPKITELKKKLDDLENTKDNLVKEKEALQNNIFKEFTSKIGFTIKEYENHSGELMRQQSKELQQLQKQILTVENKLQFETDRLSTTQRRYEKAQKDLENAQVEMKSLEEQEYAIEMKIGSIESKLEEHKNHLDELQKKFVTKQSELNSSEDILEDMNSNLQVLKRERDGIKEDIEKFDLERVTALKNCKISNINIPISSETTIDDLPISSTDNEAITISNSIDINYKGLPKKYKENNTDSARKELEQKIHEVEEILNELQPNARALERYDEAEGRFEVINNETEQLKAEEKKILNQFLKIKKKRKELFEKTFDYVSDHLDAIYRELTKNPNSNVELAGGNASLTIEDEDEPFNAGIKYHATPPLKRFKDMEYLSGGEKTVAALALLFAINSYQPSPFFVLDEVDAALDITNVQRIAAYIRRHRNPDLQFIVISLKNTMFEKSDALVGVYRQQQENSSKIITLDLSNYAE
Chain of Smc1-Smc3-Scc1 trimer (S. cerevisiae cohesin) (P47037 whole entry, chain 2 of 3): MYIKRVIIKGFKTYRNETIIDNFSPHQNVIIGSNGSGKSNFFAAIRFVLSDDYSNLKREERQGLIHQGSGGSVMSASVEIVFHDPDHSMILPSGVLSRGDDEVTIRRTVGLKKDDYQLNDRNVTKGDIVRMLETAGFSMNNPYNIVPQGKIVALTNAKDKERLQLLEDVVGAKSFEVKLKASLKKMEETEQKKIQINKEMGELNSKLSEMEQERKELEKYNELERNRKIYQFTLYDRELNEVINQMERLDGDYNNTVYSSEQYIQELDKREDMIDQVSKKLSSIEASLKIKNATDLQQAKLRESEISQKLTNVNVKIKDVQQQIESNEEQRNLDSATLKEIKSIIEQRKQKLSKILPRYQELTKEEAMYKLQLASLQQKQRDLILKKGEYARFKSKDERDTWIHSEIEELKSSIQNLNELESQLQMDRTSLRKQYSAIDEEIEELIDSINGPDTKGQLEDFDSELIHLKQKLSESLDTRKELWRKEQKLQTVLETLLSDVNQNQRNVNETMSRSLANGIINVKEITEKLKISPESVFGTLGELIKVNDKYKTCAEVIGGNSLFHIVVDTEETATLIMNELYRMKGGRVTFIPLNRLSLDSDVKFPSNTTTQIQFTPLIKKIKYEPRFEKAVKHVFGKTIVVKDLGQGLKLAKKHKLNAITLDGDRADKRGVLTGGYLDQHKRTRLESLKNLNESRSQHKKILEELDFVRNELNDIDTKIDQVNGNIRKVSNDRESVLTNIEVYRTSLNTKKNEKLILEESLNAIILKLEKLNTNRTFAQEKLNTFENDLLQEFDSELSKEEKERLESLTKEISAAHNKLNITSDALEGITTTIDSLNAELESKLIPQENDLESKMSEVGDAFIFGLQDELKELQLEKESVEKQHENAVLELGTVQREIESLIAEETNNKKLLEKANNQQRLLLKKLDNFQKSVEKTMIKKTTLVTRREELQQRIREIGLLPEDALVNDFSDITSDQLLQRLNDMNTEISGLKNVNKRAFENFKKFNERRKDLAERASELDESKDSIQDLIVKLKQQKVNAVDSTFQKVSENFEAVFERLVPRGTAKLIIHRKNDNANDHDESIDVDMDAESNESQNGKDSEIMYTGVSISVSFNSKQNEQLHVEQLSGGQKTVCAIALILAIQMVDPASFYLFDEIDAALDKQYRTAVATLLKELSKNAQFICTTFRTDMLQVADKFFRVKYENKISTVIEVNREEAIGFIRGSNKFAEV
Chain of Smc1-Smc3-Scc1 trimer (S. cerevisiae cohesin) (Q12158 whole entry, chain 3 of 3): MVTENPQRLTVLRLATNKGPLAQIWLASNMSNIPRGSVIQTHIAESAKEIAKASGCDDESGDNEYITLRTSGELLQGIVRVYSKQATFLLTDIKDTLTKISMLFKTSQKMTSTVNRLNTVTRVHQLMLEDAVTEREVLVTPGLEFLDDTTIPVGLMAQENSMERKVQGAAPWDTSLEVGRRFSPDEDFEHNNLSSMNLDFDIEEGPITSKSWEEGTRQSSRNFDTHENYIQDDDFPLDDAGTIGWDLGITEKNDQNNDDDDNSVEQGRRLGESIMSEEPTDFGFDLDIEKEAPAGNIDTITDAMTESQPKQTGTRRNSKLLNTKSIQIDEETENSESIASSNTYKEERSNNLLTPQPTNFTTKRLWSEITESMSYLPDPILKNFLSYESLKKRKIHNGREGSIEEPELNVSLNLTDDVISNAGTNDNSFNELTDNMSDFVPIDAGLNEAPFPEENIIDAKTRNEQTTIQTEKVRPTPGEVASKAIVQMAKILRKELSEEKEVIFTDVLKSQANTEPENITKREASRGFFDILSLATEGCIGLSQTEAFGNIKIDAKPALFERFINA

binding result [1]	binding result [2]	Binder	further results
binds		Scc2 residues 151-1493 (S. cerevisiae cohesin loader), recombinant (domain or fragment) SNAGNLSFNDNSSNKKTKTSTGVTMTQANLAEQYLNDLKNILDIVGFDQNSAEIGNIEYWLQLPNKKFVLTTNCLTKLQMTIKNITDNPQLSNSIEITWLLRLLDVMVCNIKFSKSSLKMGLDDSMLRYIALLSTIVLFNIFLLGKNDSNLHRESYIMEPVNFLSDLIESLKILTIEYGSLKIEFDTFQEALELLPKYIRNGPFLDDNVTAKLVYIFSDLLMNNDIEATTNIQFQSFWDNVKRISSDILVSLFGSFDQQRGFIIEELLSHIEKLPTKRIQKKLRKVGNQNIYITDFTFTLMSMLENINCYSFCNQMKDIAPENIDLLKNEYKKQEEFLFNIVEHINDTILERFFKNPSALRYVIDNFVQDLLLLISSPQWPVTEKILSSLLKRLLSVYSPSMQVSANIETICLQLIGNIGSTIFDIKCSTRDHEDNNLIKMINYPETLPHFFKSFEECIAYNETIKCRRSATRFLWNLRLGTILILEEYTKDAKEQIITVDNELKKILEQIKDGGLGPELENREADFSTIKLDYFSILHAFELLNLYDPYLKLILSLLAKDKIKLRSTAIKCLSMLASKDKVILSNPMVKETIHRRLNDSSASVKDAILDLVSINSSYFEFYQQINNNYNDDSIMVRKHVLRINEKMYDETNDIVTKVYVIARILMKIEDEEDNIIDMARLILLNRWILKVHEVLDQPEKLKEISSSVLLVMSRVAIMNEKCSQLFDLFLNFYLLNKEAHSKEAYDKITHVLTILTDFLVQKIVELNSDDTNEKNSIVDKQNFLNLLAKFADSTVSFLTKDHITALYPYMVSDEKSDFHYYILQVFRCTFEKLANFKQKFLYDLETTLLSRLPKMNVREIDEAMPLIWSVATHRHDTARVAKACSSCLSHLHPYINKANNEEAAIVVDGKLQRLIYLSTGFARFCFPKPSNDKIAFLQEGETLYEHITKCLLVLSKDKITHVIRRVAVKNLTKLCGNHPKLFNSRHVLHLLDKEFQSDQLDIKLVILESLYDLFLLEERKSVRNTGVNSTLSSNSILKKKLLKTNRVEFANDGVCSALATRFLDNILQLCLLRDLKNSLVAIRLLKLILKFGYTNPSHSIPTVIALFASTSQYIRHVAYELLEDLFEKYETLVFSSLSRGVTKAIHYSIHTDEKYYYKHDHFLSLLEKLCGTGKKNGPKFFKVLKRIMQSYLDDITDLTSTNSSVQKSIFVLCTNISNITFVSQYDLVSLLKTIDLTTDRLKEVIMDEIGDNVSSLSVSEEKLSGIILIQLSLQDLGTYLLHLYGLRDDVLLLDIVEESELKNKQLPAKKPDISKFSAQLENIEQYSSNGKLLTYFRKHVKDT	
	binds	B1	
	binds	MukEF complex (E. coli) (complex) chain 1: MSSTNIEQVMPVKLAQALANPLFPALDSALRSGRHIGLDELDNHAFLMDFQEYLEEFYARYNVELIRAPEGFFYLRPRSTTLIPRSVLSELDMMVGKILCYLYLSPERLANEGIFTQQELYDELLTLADEAKLLKLVNNRSTGSDVDRQKLQEKVRSSLNRLRRLGMVWFMGHDSSKFRITESVFRFGADVRAGDDPREAQRRLIRDGEAMPIENHLQLNDETEENQPDSGEEE chain 2: MSEFSQTVPELVAWARKNDFSISLPVDRLSFLLAVATLNGERLDGEMSEGELVDAFRHVSDAFEQTSETIGVRANNAINDMVRQRLLNRFTSEQAEGNAIYRLTPLGIGITDYYIRQREFSTLRLSMQLSIVAGELKRAADAAEEGGDEFHWHRNVYAPLKYSVAEIFDSIDLTQRLMDEQQQQVKDDIAQLLNKDWRAAISSCELLLSETSGTLRELQDTLEAAGDKLQANLLRIQDATMTHDDLHFVDRLVFDLQSKLDRIISWGQQSIDLWIGYDRHVHKFIRTAIDMDKNRVFAQRLRQSVQTYFDEPWALTYANADRLLDMRDEEMALRDEEVTGELPEDLEYEEFNEIREQLAAIIEEQLAVYKTRQVPLDLGLVVREYLSQYPRARHFDVARIVIDQAVRLGVAQADFTGLPAKWQPINDYGAKVQAHVIDKY	
	binds	MukE (E. coli KITE protein of MukBEF), untagged, from the co-expressed holocomplex (natural protein) MSSTNIEQVMPVKLAQALANPLFPALDSALRSGRHIGLDELDNHAFLMDFQEYLEEFYARYNVELIRAPEGFFYLRPRSTTLIPRSVLSELDMMVGKILCYLYLSPERLANEGIFTQQELYDELLTLADEAKLLKLVNNRSTGSDVDRQKLQEKVRSSLNRLRRLGMVWFMGHDSSKFRITESVFRFGADVRAGDDPREAQRRLIRDGEAMPIENHLQLNDETEENQPDSGEEE	binding result [3]: binds
		MukE (E. coli) made as His6-SUMO-MukE for the MukEF preparation (natural protein) MSSTNIEQVMPVKLAQALANPLFPALDSALRSGRHIGLDELDNHAFLMDFQEYLEEFYARYNVELIRAPEGFFYLRPRSTTLIPRSVLSELDMMVGKILCYLYLSPERLANEGIFTQQELYDELLTLADEAKLLKLVNNRSTGSDVDRQKLQEKVRSSLNRLRRLGMVWFMGHDSSKFRITESVFRFGADVRAGDDPREAQRRLIRDGEAMPIENHLQLNDETEENQPDSGEEE	binding result [4]: binds
binds		Scc3 (S. cerevisiae cohesin HAWK protein), recombinant (natural protein) MTAVRRSTRIRTKSQVIEEDYDDEQNTSAQHVESDKITAKTQHEEEEEQDTGESEESSSEDDYEDQDDDDYVDTATAKRKSRKRKPKSASNTSSKRQKKKPTSAQKSAVSHAPAYHRSKKDQDQYLEIAKDFQPTELFDILSTSEDVSIEELLREWLETYSENRDKFLQEFINLLLNCCGSVARVEDHDVHSNESSNETIGEIQLLFQRQKLHEFYLLISKENKKRKNFKMGPLYQNFAEFMTKLLEVANDLQLLYVESDEDDTQIVTGNLVLDLLTWLSSFSVCKIRCFRYISTLTLYLFQDYLTQQAVNLEKNYLAKLSKQLSLEEKKKRPNNKTLEKLESTIAETQGSKVVIDSIIDNIVKLCFVHRYKDVSDLIRSESMLHLSIWIKNYPEYFLKVTFLKYFGWLLSDNSVSVRLQVTKILPHLIIQNHNSKSTDNSAIRQVFERFKTKILEVAIRDVNLDVRIHSIQVLTEASSLGYLDDSEILIISSLMFDEEFDPFKTSSFNKRSKFLSTVAKFLARVIKEKFDEFIKTHEDLPKEVDGLEVGPVVQVGIFIKILNDSLIYHLKDCAEVDSRTKIRMLTQAAEFLSPYISTHLKTICNLLISDTESNELIQKLQNSANNNSDDEDVDDEELDITPLFPIDRNSTILYLNVFHGLCAGANNPKIQTKDSVKEIVLPLFYDLLNAASIESADILCPLLESFITFSLDDWISIGYETELKKITDKTIKAFMDSTIGNSKVDMKYDIFAKFIHHIHHFEKKELQEKFLNQIATLKIHLKKFLQEKMDPNNSRDDYKDLTCSLYELYINKLTILGRDYPIEVDEELLQLFLNNFVSRIPIMFQDFDDSTAQEINFKMLVLLATWNLEKWREIIEKVRDYENSISKDLRSVWKPIAAIIGRLNTLVISLAATNETFENINSLFYLKWSACTSLMDIIVAIKIFELKLPADATTWRYSMSEQFPFYLHDNASKVLLKIFLYLESLFAKQVDVQLERVADEDANLNDLPETGFFENIETEFLLFTVKLKGLMKLNILDERFASRVALNKEKLGPLFKKIVDDTIMENPEPNKKNIQKAKSNQTQREKAPLQPNSERETDHANTENNDPDIPMTIDLEPIEESSQNNSELAPIEEHPTVVDAIDNSDEITQD	
